B1: CHK (murine Ctk) immunoprecipitated from mouse brain (protein)
chain: MARRSSRVSWLAFEGWESRDLPRVSPRLFGAWHPAPAAARMPTRWAPGTQCMTKCENSRPKPGELAFRKGDMVTILEACEDKSWYRAKHHGSGQEGLLAAAALRHGEALSTDPKLSLMPWFHGKISGQEAIQQLQPPEDGLFLVRESARHPGDYVLCVSFGRDVIHYRVLHRDGHLTIDEAVCFCNLMDMVEHYTKDKGAICTKLVKPRRKQGAKSAEEELAKAGWLLDLQHLTLGAQIGEGEFGAVLQGEYLGQKVAVKNIKCDVTAQAFLDETAVMTKLQHRNLVRLLGVILHHGLYIVMEHVSKGNLVNFLRTRGRALVSTSQLLQFALHVAEGMEYLESKKLVHRDLAARNILVSEDLVAKVSDFGLAKAERKGLDSSRLPVKWTAPEALKNGRFSSKSDVWSFGVLLWEVFSYGRAPYPKMSLKEVSEAVEKGYRMEPPDGCPGSVHTLMGSCWEAEPARRPPFRKIVEKLGRELRSVGVSAPAGGQEAEGSAPTRSQDP
B2: Csk (murine) immunoprecipitated from mouse brain (protein)
chain: SAIQAAWPSGTECIAKYNFHGTAEQDLPFCKGDVLTIVAVTKDPNWYKAKNKVGREGIIPANYVQKREGVKAGTKLSLMPWFHGKITREQAERLLYPPETGLFLVRESTNYPGDYTLCVSCEGKVEHYRIMYHASKLSIDEEVYFENLMQLVEHYTTDADGLCTRLIKPKVMEGTVAAQDEFYRSGWALNMKELKLLQTIGKGEFGDVMLGDYRGNKVAVKCIKNDATAQAFLAEASVMTQLRHSNLVQLLGVIVEEKGGLYIVTEYMAKGSLVDYLRSRGRSVLGGDCLLKFSLDVCEAMEYLEGNNFVHRDLAARNVLVSEDNVAKVSDFGLTKEASSTQDTGKLPVKWTAPEALREKKFSTKSDVWSFGILLWEIYSFGRVPYPRIPLKDVVPRVEKGYKMDAPDGCPPAVYEVMKNCWHLDAATRPTFLQLREQLEHIKTHELHL

| Protein | in vitro kinase assay of immunoprecipitates (32P incorporation into substrate) (C-terminal src peptide) | in vitro kinase assay of immunoprecipitates (32P incorporation into substrate) (enolase) |
| --- | --- | --- |
| B1 | both kinases phosphoylated the C-terminal scr peptide, enolase and poly Glu/Try to similar degrees | both kinases phosphoylated the C-terminal scr peptide, enolase and poly Glu/Try to similar degrees |
| B2 | both kinases phosphoylated the C-terminal scr peptide, enolase and poly Glu/Try to similar degrees | both kinases phosphoylated the C-terminal scr peptide, enolase and poly Glu/Try to similar degrees |
